Experimental data from the DeepSol protein solubility set.

Experiment: soluble on expression in E. coli; label from the status in PepcDB or PDB records

MGSDKIHHHHHHMNFTHKNLQRSYMAERTMVILDGGMGRELQRSGAPFRQPEWSALALSEAPEAVVGVHAAFIDAGAQVITSNSYAVVPFHIGEERFAAEGRQLAHIAGQLARHAADSGAHPVRVAGSLPPLFGSYRPDLFQPERVAEVLTPLLQGLAPHVDLWLAETQSSVAEVRAIHSHLPADGRPFWVSFTLQDEEVDEVPRLRSGEPVAEAIEAAVGLGVAAVLFNCSQPEVIGAAIDVARSVIERHNAEIAIGAYANAFPPQPKEATANDGLDELREDLDPPGYLAWAKDWRARGASMVGGCCGIGPEHIAELKRNLA
soluble on expression in E. coli: not soluble

MTHATVTQTVHYHNGETGGQMQADTTNEVNFDRTVTIDTVTGEITHYGDWEADGDDYFKGFDSPTFDGYFADVQHTGEVKGVDPEQGTVDDVTITYYALEHHHHHH
soluble on expression in E. coli: soluble

VCSCRLVFCRRTELRVGNCLIGGVSFTYCCTRV
soluble on expression in E. coli: soluble

EFSMEDLIPLVNRLQDAFSAIGQNADLDLPQIAVVGGQSAGKSSVLENFVGRDFLPRGSGIVTRRPLVLQLVNATTEYAEFLHCKGKKFTDFEEVRLEIEAETDRVTGTNKGISPVPINLRVYSPHVLNLTLVDLPGMTKVPVGDQPPDIEFQIRDMLMQFVTKENCLILAVSPANSDLANSDALKVAKEVDPQGQRTIGVITKLDLMDEGTDARDVLENKLLPLRRGYIGVVNRSQKDIDGKKDITAALAAERKFFLSHPSYRHLADRMGTPYLQKVLNQQLTNHIRDTLPGLRNKLQSQLLSIEKEVEEYKNFRPDKHGTDSRVDEMLRMYHALKEALSIIGNIN
soluble on expression in E. coli: soluble

MGSDKIHHHHHHMANSHDGNAQVLSYPKHPPKDFSDLAATLIRNGLGRVDAETLERHLEQVGYFRLKGYWYQFLSPSSSCDYKHVLPFRKGTQFQQIWCRYIFDQELRTLVFDGIITFEIYLKSFLAHELSLFGGEFGYTKPEGLPELSFDDYLACINSLRASFTKSNLPYLKHFKRTYKDPLPPYWMIVGCLSYGTLKGYFYQGSPDSVKRKLAAKLHIFNPNTNPEVHGDIKILSNWLETIRQVRNMVAHHDRFWNETSTRIVPKLPKHRSGLHANEWWGNDWDAFRTDSTGPAAFLTMENYLLQQIDGSAWKNKFISLMDRYPEILATEMGFPEDWRSLALWS
soluble on expression in E. coli: not soluble

MWYTGTGDKGKTKVPSVGEVWKDSEIVKALGDLDELNSVLGVVSSLYPELSEVIQKLQNDIFSISSEIAGFDMNFSDEKVKGIEELITNYSKELEPLRNFVLPGGHIASSFLHLARAVCRRAERSVVTLLKESKAKEVHAKYLNRLSSLLFVLALVVNKRTNNPNVIWRGKD
soluble on expression in E. coli: soluble

MAHHHHHHMAAPSHQHSLVLERSTCHHYYHCVLYDILFDLPVREIAAQVVPCKDSNIVQRLTSADCRVVPHQLHVYKEPLEKKFGYVSFFVHRAPHSSTAADDVHRLVCEWVAVDLASQLATVQCKVQLAQPPECHSSEPFLNAFRLKCPLLDPTLAADTKKLETFVLTRVRFGQHCGNASVNQLNAVHCDDAKSAASAGSCGTETEMCTDDGLTATEGELDAGARSATRTLDEHVWKCVGTFLIASLSPKELVWLKKQLPSFPPLRIANGDMDTAYCDEAKLAQFFETSLAPLFTVDEVVEAAALNTVNSEA
soluble on expression in E. coli: not soluble

MLTRLAVEAAEQARLAAEVEAQRIAAETAEHARVVAEAEAKRVADEQALFAAEAEAHRITAEAAEQARMEAEAQAQRDADEHARVTAEAQALEAGKTLRLPEAGTPQLGAVAGVISVTAGSGLFLDATIQAAIEILAALVGTAVSSTTAVGIGTLLYSPSLGNGELPGRMLDLPARVLMPDLPDALNDVAATGGTVDMPYRIYGDQSKYSVVATQPEGGFSPKVPVRALILDPVANAYTFTTSDTPPITLTFPIAAPENSSTTTVAQPIETPAYTGITLEPIEVKAEPLPATSPLDIRDAIYVYPVNSGLPPVYVVFSSPYEGATTKGEHSGRMYDPDNAGGPTQNLDWTTASVTQNGIDLVKLHTGRFEPSDANAVMIDRLEKILRSELSMTDTDKRFYTHELRELERYRALGVADGVEGEVWNNAHTATLEDYKLKDSSESFYTPEAILEHHHHHH
soluble on expression in E. coli: soluble

KNTPVRMRGTLQDITERTKIEDSLLLSEERYRSFIQNFTGIAFQQDEDLNLEFVKGNVEEITGYSEEELMSKKRWRKIVEKQDLPLFLKKEREIKNARSPYSGKLSYRIRCKDGKIKWVHEVYQKIPGKN
soluble on expression in E. coli: not soluble

MAHHHHHHMSASLKKTALHLFHLAQQAKMDAFAGYHMPISYGRLGVLKEHLYTREVAGIFDVSHVGQYEVRGADRERFLEHVTPVDLQRIRAGHGALTMLTNAQGGIKDDCIVTKMADHLFLVLNAGCKEKDVAHMESVLRESAMKGADVQLVPLDRSLIALQGPQAAAILSEFMDDVPGMGFMQCRQRVNIKGMEVQVTRCGYTGEDGFELSVSNTDIVALVELLMSRKAEMIGLGARDSLRLEAGLNLYGHELTEDINPVAARFMWVISKRRMAEGGFIGYEPIKYLRDNASKGAVPRLRVGLVSTGPVAREKTVIEVGGKPVGEVTSGCPSPCLKKNIAIGYLDRELAKDGVKVDLVVRGRRVAAVVVTPPFVPARYYRKPK
soluble on expression in E. coli: not soluble

MDVEPIFCAEQIVIPHNLADILKAYTKEVIRRQPTDLIAFSAKYFTNLANVASGVSNSSAPAKEQLRQVYTRGGSGGATLTESQVTGLCQQAGIADAVVAKVMEVGAFTPAAVDLSKFVFLCLAMSCEDFNRVCMGVFDVFSDNGSLPAQDLLTLIAHLGPDMDPEVTPAFLDAVAAELPAGGGAVTYMELCEAPSLKPKLGLS
soluble on expression in E. coli: not soluble

MRSLADFEFNNAPLCDGMILASEMIRLDFPTQFVYDELERLVSLAQEEISQLLSQDEQLEKLLALFYGEWGFTDSRGVYRLSDALWLDKVLKKRQGSAVSLGAILLWIANRLDLPLVPVIFPTQLILRIESLEGEMWLINPFNGETLDEHTLEVWLKGNISPVAELFNEDLDEADNAEVIRKLLDTLKSSLMEERQMELALRVSEALLQFNPEDPYEIRDRGLIYAQLECEHVALTDLSYFVEQCPEDPISEMIRAQINTIAHKQIVLHLEHHHHHH
soluble on expression in E. coli: not soluble

MLSKSKRSCRRRETLRIGEKMSAPITNLQAAQRDAIMNRPAVNGFPHLAETLRRAGVRTNTWWLPAMQSLYETDYGPVLDQGVPLIDGVAEVPAFDRTALVTALRADQAGQTSFREFAAAAWRAGVLRYVVDLENRTCTYFGLHDQTYMEHYAAVEPSGGAPTS
soluble on expression in E. coli: not soluble

MTSITAIFFDLDGTLVDSSIGIHNAFTYTFKELGVPSPDAKTIRGFMGPPLESSFATCLSKDQISEAVQIYRSYYKAKGIYEAQLFPQIIDLLEELSSSYPLYITTTKDTSTAQDMAKNLEIHHFFDGIYGSSPEAPHKADVIHQALQTHQLAPEQAIIIGDTKFDMLGARETGIQKLAITWGFGEQADLLNYQPDYIAHKPLEVLAYFQ
soluble on expression in E. coli: soluble

MYETIVSSRGSSFFVSQGKTGEQVYRCQVNREQCPNTLPIDKHIDLVRKYIRAFLYRFAGMTSLNETSSRRMIFLVVPSFCVIEIIP
soluble on expression in E. coli: not soluble

MGSDKIHHHHHHMDLEEQKKAVIEKLIREGYIKSKRVIDALLKVPREEFLPEHLKEYAYVDTPLEIGYGQTISAIHMVGMMCELLDLKPGMKVLEIGTGCGYHAAVTAEIVGEDGLVVSIERIPELAEKAERTLRKLGYDNVIVIVGDGTLGYEPLAPYDRIYTTAAGPKIPEPLIRQLKDGGKLLMPVGRYLQRLVLAEKRGDEIIIKDCGPVAFVPLVGKEGFQG
soluble on expression in E. coli: not soluble

AGWQSYVDNLMCDGCCQEAAIVGYCDAKYVWAATAGGVFQSITPIEIDMIVGKDREGFFTNGLTLGAKKCSVIRDSLYVDGDCTMDIRTKSQGGEPTYNVAVGRAGRALVIVMGKEGVHGGTLNKKAYELALYLRRSDV
soluble on expression in E. coli: soluble

MGSDKIHHHHHHMIGRKRKYEDPHIRSFHELLSGHNPVLYKKEDLLAYDCDGFTIHKHLPKAVVFPENTREVASIVRYCHDHNLPFLARGAGTGLSGGAIPINGEVIISLVRMKRLLEVDLKNRRAIVEPGYVNLKLTQSIEDKGYYYAPDPSSQYCCTIGGNVAENAGGAHCLKYGVTTNHILGMEVVLPNGDIVEIGKAGILDEPGYDLLGLMTGSEGTLGIVTKITVRILKHPEAKQTVLAYFDKVSDASHTVSDIISEGIVPAALEMMDRIAMEGVEAAAFPIGHLLDAEAVLLIEVDGISAGMDQQIERILTVCRKHHVREVKDEMVGEPKNRLWCHGCHLTRLPRTRWSDPADKASGRAFNDSKNQRNIRATNRKYFSRR
soluble on expression in E. coli: not soluble

MGSDKIHHHHHHADFVSDYIWRGAYQNSGFSVQPTLGLSYGNLSLSAWGSQSLTKTDGAQEFDINLSYTIGGLGITVTDYWWNGITMPYGDYKHDHHFEGTLAYNFGENFPLTLSWSTMFAGGDDNKDGDRAYSTYINASYNIACPAEITLTPSVGFTPWKGMYDADGAAFTDIALKASKNINITDHFSLPLFVQAIVSPSFDKTYLIAGLSIGF
soluble on expression in E. coli: not soluble

MSSFIEMIENITPDVYESLKLAVEIGKWSDGRKLTQEQRELSLQALIAWEAQNLPEDQRTGYMGPQECASKSAPVPNILFKSDAIH
soluble on expression in E. coli: not soluble

MLKIIPGATGYFNKTLNSNQFDNEDAIKDKLDNRGSIKGKLNNIYGKSIDYAALRHRDIIIAKIDLFIQRITHNLWHARKKMCFLEHHHHHH
soluble on expression in E. coli: not soluble

MNNQTMTFTPEQLRKHAQEMLRHAEQLEKTGITKDAIRKDMVPALRELMQAKHRAQKAVDELVDCVAELETRVGKFEKLVQEALR
soluble on expression in E. coli: not soluble

MNLTNYHSHTLYCDGRAGMEDFIRFAISRGFTSYGISSHAPLPFPTHWTMEWDRMDDYLDEFTRMKEKYASEIELAVGLEIDYLNEDSNPSVRRFQELPLDYRIGSVHLLYNDRDEVVDIDVCAEVFRDIVDQHFGGDLDRVIHLYYDRLLRMVELGGFDILGHADKMHHNAACYRPGLLDESWYDALIHDYFSAVAAKGYIVEINTKALHHLNTFFPNERYFPLLKELGVRVQVNSDSHYPERINSGRPEALAALQKAGFETVTEWHGGKWIEMPL
soluble on expression in E. coli: not soluble

MGSDKIHHHHHHCDETELDQTVTNQVNPQKEEDSRIVFNSAKEFYNTLDTLSYMTYEEQTEWIRASGIKYPLYKDLEFCEDEIMTEMPRAFQALFNHKMEMQINDTVIAFEKGNMYVKSIKEKILPVPVLYGQVGVNQEESEVTTRTVYETKYGKIGTSYQYEFKIPEGKSKYKYVHELKSVIIKENLPPYKSWSNLFLVLKLEWKGKKKWKVAEKEERNISIDLNVCKRNLAKVKYNQEIRIDVQNMDSKSHSINIEGYIIHEVVGIPSTKMFNGWSYPLVEWQPR
soluble on expression in E. coli: not soluble

MMSSNQQPVVLGKLGSCHGIKGWLKITAYTDSVEGIFDYSPWLIKENGEWREVKVIQWRYQGKAVVAELEGVTTRERAQMLTNCEIGILPQQMNALPEDEFYWRDLIGCEVINTTGYNMGIVDQIVETGSNDVLLVKANAKDSFGKVERMVPFVPGQFILKVDVQGKQILVDWDPDFLEHHHHHH
soluble on expression in E. coli: soluble

MPIMSIISCKIMQDEIIWILENDSSIDETIIIDSENILEFVEKLDKVNLQYKVLSLEDISSLAEIRSECKNYTVMIHLMELGLHRSPKELKIKVYETIKTLAPFSSGILLFYGLCGNVLGDVEKDFERSSTSCPVRILKDKDHRIVDDCIGATVGGVNNYLRILKSVSDAGTYLFTPMYSKGWRELLDLNKLNKDPSKALKLMKKTHEMIGYKRVAKINTGLEYTENFDASIQEFAELFDFEILEFDDGNQKIFEDCYNELKAELLEHHHHHH
soluble on expression in E. coli: not soluble

GMQYATLELNNAFKVLFSLRQVQAAEMVIAPGDREGGPDNRHRGADQWLFVVDGAGEAIVDGHTQALQAGSLIAIERGQAHEIRNTGDTPLKTVNFYHPPAYDAQGEPLPAGEG
soluble on expression in E. coli: soluble
